Reference: US20240116985A1 (published 2024)
Starred links: 1 amine or outer side, 2 acyl side, 3 side chain; linkers in the order of their positions; H or OH if unused. Positions of bridges follow the written chain, without caps; N, C: chain ends. Non-standard residues stand in square brackets, D forms with d. Primed or numbered codes have the meaning given here. B5(10) = 2-amino-2-(pent-4-en-1-yl)hept-6-enoic acid, bis(4-pentenyl)glycine, stitching residue bearing both staples, C=CCCCC(CCCC=C)(N[*:1])C(=O)[*:2]; B5(4) = 2,2-bis(4-pentenyl)glycine = 2-amino-2-(pent-4-en-1-yl)hept-6-enoic acid (stitching residue), C=CCCCC(CCCC=C)(N[*:1])C(=O)[*:2]; PyrS2 = (S)-3-amino-1-((pent-4-en-1-yloxy)carbonyl)pyrrolidine-3-carboxylic acid, C=CCCCOC(=O)N1CC[C@@](N[*:1])(C(=O)[*:2])C1; Bta = N[C@@H](Cc1csc2ccccc12)C(=O)O; αAllylPro = C=CC[C@@]1(C(=O)O)CCCN1; S8 = C=CCCCCCC[C@](C)(N)C(=O)O

How the values were obtained:
[1] = molecular target: T1, full-length beta-Catenin (Uniprot ID P35222) (Homo sapiens (Human), UniProt P35222 1-781); experiment: fluorescence polarization competition against 5FAM-TCF4(10-53) on full-length beta-catenin
T1 construct: also called bCat
T1 sequence: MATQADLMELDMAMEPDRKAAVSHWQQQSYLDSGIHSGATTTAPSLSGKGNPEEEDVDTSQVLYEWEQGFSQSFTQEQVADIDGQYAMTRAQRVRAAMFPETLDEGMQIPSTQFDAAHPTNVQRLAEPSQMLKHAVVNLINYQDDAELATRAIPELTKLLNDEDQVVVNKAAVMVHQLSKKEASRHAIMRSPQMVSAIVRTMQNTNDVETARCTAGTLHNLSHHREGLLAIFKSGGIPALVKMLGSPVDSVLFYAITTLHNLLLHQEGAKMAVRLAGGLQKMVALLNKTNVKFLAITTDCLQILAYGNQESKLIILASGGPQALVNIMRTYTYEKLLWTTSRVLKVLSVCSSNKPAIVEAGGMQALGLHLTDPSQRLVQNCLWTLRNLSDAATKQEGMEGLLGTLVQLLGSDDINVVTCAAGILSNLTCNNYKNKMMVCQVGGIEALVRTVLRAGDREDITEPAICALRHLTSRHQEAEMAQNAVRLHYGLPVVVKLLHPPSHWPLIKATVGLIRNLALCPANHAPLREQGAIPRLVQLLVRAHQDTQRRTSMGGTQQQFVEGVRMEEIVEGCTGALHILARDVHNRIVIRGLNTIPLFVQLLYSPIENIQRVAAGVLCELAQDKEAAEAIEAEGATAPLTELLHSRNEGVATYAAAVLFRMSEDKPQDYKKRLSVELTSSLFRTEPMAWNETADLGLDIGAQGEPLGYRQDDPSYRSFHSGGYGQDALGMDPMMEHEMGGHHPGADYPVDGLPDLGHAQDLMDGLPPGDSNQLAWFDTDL
Experimental: The plate was incubated protected from light for 60 minutes at 20° C. prior to read. Reads were performed on a CLARIOstar plate reader (BMG Labtech) in duplicate, and data were fitted to a 1:1 binding model with hill slope using an in-house script. All provided concentrations are final concentrations.

[2] = molecular target: T2, Bcat-Halo (UniProt P35222 1-781); experiment: NanoBRET in HEK293 cells, Bcat-Halo/TCF4-Luc (competitor TCF4-Luc); absolute IC50
T2 construct: Construct transfected into HEK293 cells for NanoBRET; not shown: HaloTag fusion partner
T2 sequence (looked up): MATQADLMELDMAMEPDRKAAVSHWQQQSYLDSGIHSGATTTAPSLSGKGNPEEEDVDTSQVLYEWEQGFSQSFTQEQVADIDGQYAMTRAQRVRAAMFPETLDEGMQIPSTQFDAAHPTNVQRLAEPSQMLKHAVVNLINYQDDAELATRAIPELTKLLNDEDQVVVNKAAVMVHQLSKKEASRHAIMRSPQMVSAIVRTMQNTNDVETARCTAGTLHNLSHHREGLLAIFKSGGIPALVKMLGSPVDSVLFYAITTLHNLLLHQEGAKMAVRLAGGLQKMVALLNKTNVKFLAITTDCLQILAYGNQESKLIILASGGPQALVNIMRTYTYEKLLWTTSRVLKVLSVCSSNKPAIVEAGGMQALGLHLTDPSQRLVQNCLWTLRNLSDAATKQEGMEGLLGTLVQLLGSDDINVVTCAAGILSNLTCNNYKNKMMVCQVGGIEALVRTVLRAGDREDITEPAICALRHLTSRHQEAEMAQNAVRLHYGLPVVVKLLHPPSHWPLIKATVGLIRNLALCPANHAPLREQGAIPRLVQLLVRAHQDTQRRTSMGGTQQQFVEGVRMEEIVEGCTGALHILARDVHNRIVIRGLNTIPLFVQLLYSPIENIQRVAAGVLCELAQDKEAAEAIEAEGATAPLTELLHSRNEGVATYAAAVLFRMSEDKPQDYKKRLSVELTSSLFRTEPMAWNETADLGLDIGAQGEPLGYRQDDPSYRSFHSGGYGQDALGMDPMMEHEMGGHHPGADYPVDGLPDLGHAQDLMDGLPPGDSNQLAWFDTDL

[3] = molecular target: T3, full-length beta-Catenin (Uniprot ID P35222) (Homo sapiens (Human), UniProt P35222 2-781); experiment: fluorescence polarization competition; full-length beta-catenin, competitor 5FAM-TCF4(10-53) probe
T3 construct: Also used here for the endogenous beta-catenin of the DLD1 TCF reporter cells; also called bCat; B-Catenin
T3 sequence: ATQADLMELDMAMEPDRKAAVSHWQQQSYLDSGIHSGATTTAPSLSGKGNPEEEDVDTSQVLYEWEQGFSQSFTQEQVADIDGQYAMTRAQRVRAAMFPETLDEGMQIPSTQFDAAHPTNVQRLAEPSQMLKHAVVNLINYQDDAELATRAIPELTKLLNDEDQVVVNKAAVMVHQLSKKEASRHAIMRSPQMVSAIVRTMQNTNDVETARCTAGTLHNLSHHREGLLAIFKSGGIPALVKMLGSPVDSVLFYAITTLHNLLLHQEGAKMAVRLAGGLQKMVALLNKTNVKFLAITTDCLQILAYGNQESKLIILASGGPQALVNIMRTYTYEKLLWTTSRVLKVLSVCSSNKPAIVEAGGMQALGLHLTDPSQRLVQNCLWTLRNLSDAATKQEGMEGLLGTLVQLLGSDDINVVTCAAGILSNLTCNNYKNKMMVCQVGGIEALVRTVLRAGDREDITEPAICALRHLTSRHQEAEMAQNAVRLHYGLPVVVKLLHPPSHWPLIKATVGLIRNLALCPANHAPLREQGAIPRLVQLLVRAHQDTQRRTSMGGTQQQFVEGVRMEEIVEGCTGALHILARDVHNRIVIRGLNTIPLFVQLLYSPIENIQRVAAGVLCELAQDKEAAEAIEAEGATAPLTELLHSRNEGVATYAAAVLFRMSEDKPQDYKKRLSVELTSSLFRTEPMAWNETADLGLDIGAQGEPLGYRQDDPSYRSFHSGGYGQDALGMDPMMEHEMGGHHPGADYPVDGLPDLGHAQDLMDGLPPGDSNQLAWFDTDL
Procedure, shortened: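 Fluorescence polarization was read in duplicate after the plate sat 60 minutes at 20° C. shielded from light. Values come from fitting to a 1:1 binding model with hill slope.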

Row | Binder | IC50 [1] [µM] | IC50 [2] [µM] | EC50 [3] [µM]
1 | Ac-[αAllylPro]NA[B5(10)]DTAAFL[PyrS2]F[Bta]Q-NH2 (staple 1-4, 4-11; not fully specified; printed as Ac-PL3-Asn-Ala-B5-Asp-Thr-Ala-Ala-Phe-Leu-PyrS2-Phe-BztA-Gln-NH2, Stapled peptide) [I-1287] | 10 | – | –
2 | Ac-[αAllylPro]DL[B5(4)]DEAAFN[S8]F[Bta]N-NH2 (staple 1-4, 4-11; also: olefin E/Z not assigned, earlier-eluting staple isomer, Stapled peptide composition) [I-752] | – | 9.9 | 0.016
3 | Ac-[αAllylPro]DL[B5(4)]DEAAFN[S8]F[Bta]N-NH2 (staple 1-4, 4-11; also: olefin E/Z not assigned, later-eluting staple isomer, Stapled peptide composition) [I-753] | – | 10 | 0.014
4 | Ac-[αAllylPro]NA[B5(10)]DTAAFL[PyrS2]F[Bta]Q-NH2 (staple 1-4, 4-11; not fully specified; printed as Ac-PL3-Asn-Ala-B5-Asp-Thr-Ala-Ala-Phe-Leu-PyrS2-Phe-BztA-Gln-NH2, Stapled peptide) [I-1286] | 10 | – | –
